In US20160002355A1 (Genentech, published 2016):

What was measured:
[1] = biological target: T1, anti-gH antibody (anti-HCMV antibody); experiment: Biacore
T1 construct: Anti-HCMV monoclonal antibody with a human IgG Fc (detected with anti-human IgG Fc)

[2] = biological target: T1, anti-gH antibody (anti-HCMV antibody); experiment: preliminary anti-HCMV human PK ELISA, anti-ID coat 1 ug/mL, anti-gH in 1% NHS, HRP-sheep anti-huIgG
Description: The assay was carried out as follows: microtiter ELISA plates were coated with anti-idiotypic monoclonal antibodies at 1 μg/mL in PBS overnight. Anti-CI and anti-gH were diluted in 1% NHS and added to the wells, being subsequently detected with 50 ng/mL (in-well concentration) of HRP-Sheep anti-huIgG.

[3] = biological target: T2, anti-Complex I antibody (anti-HCMV antibody); experiment: Biacore
T2 construct: also called anti-CI; anti-CI antibody

[4] = biological target: T2, anti-Complex I antibody (anti-HCMV …); experiment: anti-CI clinical PK ELISA; coat 4.25B10.15 1 ug/mL; 8G8 1 ug/mL; against unspiked human serum
Description: (§1) The plates are washed three times with 400 μl per well per cycle of wash buffer. 200 μl per well of blocking buffer (PBS/0.5% BSA/0.05% polysorbate 20/0.05% ProClin 300, pH 7.4±0.1) is added, and the plates are incubated at room temperature with shaking for 1-3 hours. Standard curves are prepared with standard/sample diluent (assay diluent with 0.5% normal pooled human serum; assay diluent is composed of PBS/0.5% BSA/0.05% polysorbate-20/0.35 M NaCl/0.25% CHAPS/5mM EDTA/0.05% ProClin 300, pH 7.4±0.1). The plates are washed three times with 400 μl per well per cycle of wash buffer. Diluted standards, controls and samples are added to plates at 100 μl per well, in duplicate. The plates are incubated at room temperature with shaking for 2 hours +10 minutes. The plates arc washed four times with 400 μl per well per cycle of wash buffer. HRP conjugates diluted in conjugate buffer (PBS/0.5% BSA/0.05% polysorbate 20/0.05% ProClin 300, pH 7.4±0.1) are added at 100 μl per well. The plates are incubated at room temperature with shaking for 1 hour±5 minutes, following which the plates are washed four times with 400 μl per well per cycle of wash buffer. […] The plates are read using a 450 nm read wavelength and a 620 or 630 nm reference wavelength. […]

[5] = biological target: T2, anti-Complex I antibody (anti-HCMV …); experiment: anti-CI clinical PK ELISA; coat 4.25B10.15 1 ug/mL; 8G8 4 ug/mL; against unspiked human serum
Description: as §1

[6] = biological target: T2, anti-Complex I antibody (anti-HCMV …); experiment: anti-CI clinical PK ELISA; coat 4.25B10.15 1 ug/mL; 8G8 8 ug/mL; against unspiked human serum
Description: as §1

[7] = biological target: T2, anti-Complex I antibody (anti-HCMV …); experiment: anti-CI clinical PK ELISA; coat 4.25B10.15 1 ug/mL; 8G8 16 ug/mL; against unspiked human serum
Description: as §1

[8] = biological target: T2, anti-Complex I antibody (anti-HCMV …); experiment: anti-CI clinical PK ELISA; coat 4.25B10.15 0.5 ug/mL; 8G8 1 ug/mL; against unspiked human serum
Description: as §1

[9] = biological target: T2, anti-Complex I antibody (anti-HCMV …); experiment: anti-CI clinical PK ELISA; coat 4.25B10.15 0.5 ug/mL; 8G8 4 ug/mL; against unspiked human serum
Description: as §1

[10] = biological target: T2, anti-Complex I antibody (anti-HCMV …); experiment: anti-CI clinical PK ELISA; coat 4.25B10.15 0.5 ug/mL; 8G8 8 ug/mL; against unspiked human serum
Description: as §1

[11] = biological target: T2, anti-Complex I antibody (anti-HCMV …); experiment: anti-CI clinical PK ELISA; coat 4.25B10.15 1 ug/mL; 8G8 0.5 ug/mL; against unspiked human serum
Description: as §1

[12] = biological target: T2, anti-Complex I antibody (anti-HCMV …); experiment: anti-CI clinical PK ELISA; coat 4.25B10.15 0.5 ug/mL; 8G8 16 ug/mL; against unspiked human serum
Description: as §1

[13] = biological target: T2, anti-Complex I antibody (anti-HCMV …); experiment: anti-CI clinical PK ELISA; coat 4.25B10.15 0.75 ug/mL; 8G8 1 ug/mL; against unspiked human serum
Description: (§2) Microtiter plates are coated overnight at 2-8° C. with 100 μl per well of 0.75 μg/ml anti-CI idiotypic antibody (in 0.05 M sodium carbonate buffer, pH 9.6±0.1). The plates are washed three times with 400 μl per well per cycle of wash buffer. 200 μl per well of blocking buffer (PBS/0.5% BSA/0.05% polysorbate 20/0.05% ProClin 300, pH 7.4±0.1) is added, and the plates are incubated at room temperature with shaking for 1-3 hours. Standard curves are prepared with standard/sample diluent (assay diluent with 0.5% normal pooled human serum; assay diluent is composed of PBS/0.5% BSA/0.05% polysorbate-20/0.35 M NaCl/0.25% CHAPS/5mM EDTA/0.05% ProClin 300, pH 7.4±0.1). The plates are washed three times with 400 μl per well per cycle of wash buffer. Diluted standards, controls and samples are added to plates at 100 μl per well, in duplicate. The plates are incubated at room temperature with shaking for 2 hours +10 minutes. The plates arc washed four times with 400 μl per well per cycle of wash buffer. HRP conjugates diluted in conjugate buffer (PBS/0.5% BSA/0.05% polysorbate 20/0.05% ProClin 300, pH 7.4±0.1) are added at 100 μl per well. […] The plates are read using a 450 nm read wavelength and a 620 or 630 nm reference wavelength. […]

[14] = biological target: T2, anti-Complex I antibody (anti-HCMV …); experiment: anti-CI clinical PK ELISA; coat 4.25B10.15 0.75 ug/mL; 8G8 4 ug/mL; against unspiked human serum
Description: as §2

[15] = biological target: T2, anti-Complex I antibody (anti-HCMV …); experiment: anti-CI clinical PK ELISA; coat 4.25B10.15 0.75 ug/mL; 8G8 8 ug/mL; against unspiked human serum
Description: as §2

[16] = biological target: T2, anti-Complex I antibody (anti-HCMV …); experiment: anti-CI clinical PK ELISA; coat 4.25B10.15 1 ug/mL; 8G8 0.25 ug/mL; against unspiked human serum
Description: as §1

[17] = biological target: T2, anti-Complex I antibody (anti-HCMV …); experiment: anti-CI clinical PK ELISA; coat 4.25B10.15 0.5 ug/mL; 8G8 0.5 ug/mL; against unspiked human serum
Description: as §1

[18] = biological target: T2, anti-Complex I antibody (anti-HCMV …); experiment: anti-CI clinical PK ELISA; coat 4.25B10.15 0.75 ug/mL; 8G8 16 ug/mL; against unspiked human serum
Description: as §2

[19] = biological target: T2, anti-Complex I antibody (anti-HCMV …); experiment: anti-CI clinical PK ELISA; coat 4.25B10.15 1 ug/mL; 8G8 0.125 ug/mL; against unspiked human serum
Description: as §1

[20] = biological target: T2, anti-Complex I antibody (anti-HCMV …); experiment: anti-CI clinical PK ELISA; coat 4.25B10.15 0.5 ug/mL; 8G8 0.25 ug/mL; against unspiked human serum
Description: as §1

[21] = biological target: T2, anti-Complex I antibody (anti-HCMV …); experiment: anti-CI clinical PK ELISA; coat 4.25B10.15 0.75 ug/mL; 8G8 0.5 ug/mL; against unspiked human serum
Description: as §2

[22] = biological target: T2, anti-Complex I antibody (anti-HCMV …); experiment: anti-CI clinical PK ELISA; coat 4.25B10.15 0.5 ug/mL; 8G8 0.125 ug/mL; against unspiked human serum
Description: as §1

[23] = biological target: T2, anti-Complex I antibody (anti-HCMV …); experiment: anti-CI clinical PK ELISA; coat 4.25B10.15 0.75 ug/mL; 8G8 0.25 ug/mL; against unspiked human serum
Description: as §2

[24] = biological target: T2, anti-Complex I antibody (anti-HCMV …); experiment: anti-CI clinical PK ELISA; coat 4.25B10.15 0.75 ug/mL; 8G8 0.125 ug/mL; against unspiked human serum
Description: as §2

[25] = biological target: T2, anti-Complex I antibody (anti-HCMV …); experiment: anti-CI clinical PK ELISA standard curve; anti-CI 5 ug/mL in 0.5% human serum pool; against background
Description: as §2

[26] = biological target: T2, anti-Complex I antibody (anti-HCMV …); experiment: anti-CI clinical PK ELISA standard curve; anti-CI 10 ug/mL in 0.5% human serum pool; against background
Description: as §2

[27] = biological target: T2, anti-Complex I antibody (anti-HCMV …); experiment: anti-CI clinical PK ELISA standard curve; anti-CI 20 ug/mL in 0.5% human serum pool; against background
Description: as §2

[28] = biological target: T2, anti-Complex I antibody (anti-HCMV …); experiment: anti-CI clinical PK ELISA standard curve; anti-CI 2.5 ug/mL in 0.5% human serum pool; against background
Description: as §2

[29] = biological target: T2, anti-Complex I antibody (anti-HCMV …); experiment: anti-CI clinical PK ELISA standard curve; anti-CI 1.25 ug/mL in 0.5% human serum pool; against background
Description: as §2

[30] = biological target: T2, anti-Complex I antibody (anti-HCMV …); experiment: anti-CI clinical PK ELISA standard curve; anti-CI 0.156 ug/mL in 0.5% human serum pool; against background
Description: as §2

[31] = biological target: T2, anti-Complex I antibody (anti-HCMV …); experiment: anti-CI clinical PK ELISA standard curve; anti-CI 0.313 ug/mL in 0.5% human serum pool; against background
Description: as §2

[32] = biological target: T2, anti-Complex I antibody (anti-HCMV …); experiment: anti-CI clinical PK ELISA standard curve; anti-CI 0.625 ug/mL in 0.5% human serum pool; against background
Description: as §2

T2 sequence (VH, as listed by the source, chain 1 of 2): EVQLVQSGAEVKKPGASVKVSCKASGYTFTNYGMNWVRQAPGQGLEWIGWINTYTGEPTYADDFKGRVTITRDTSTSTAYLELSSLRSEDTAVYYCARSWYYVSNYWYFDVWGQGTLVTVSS
T2 sequence (VL, as listed by the source, chain 2 of 2): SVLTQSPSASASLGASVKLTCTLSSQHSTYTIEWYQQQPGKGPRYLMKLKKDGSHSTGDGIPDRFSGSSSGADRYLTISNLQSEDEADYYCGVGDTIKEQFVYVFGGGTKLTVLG
T1 sequence (VH, as listed by the source, chain 1 of 2): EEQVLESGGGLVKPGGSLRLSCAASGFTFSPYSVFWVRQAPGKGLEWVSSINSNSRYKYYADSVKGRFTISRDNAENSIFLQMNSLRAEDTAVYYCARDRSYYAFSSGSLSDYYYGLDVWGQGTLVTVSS
T1 sequence (VL, as listed by the source, chain 2 of 2): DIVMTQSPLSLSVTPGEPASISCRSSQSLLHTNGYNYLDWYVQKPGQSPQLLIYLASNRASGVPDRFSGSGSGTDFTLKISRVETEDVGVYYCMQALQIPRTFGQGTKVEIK

B1: murine mAb 1.9E1.1 (antibody, IgG1, V domains shown)
VH: QVQLQQSGAELVMPGASVKMSCKASGYTFTDYWMYWVNQRPGQGLEWIGAIDTSDSYTTYNQNFKGKATLTVDESSSTAYMQLNSLTSEDSAVYYCARSGFPLFYYPMDYWGQGTSVTVSS
VL: QAVVTQESALTTSPGETVTLTCRSSTGAVTTSNYANWVQEKPDHLFTGLIGGTVNRAPGVPARFSGSLIGDKAALTITGAQTEDEAVYFCALWYSNHLVFGGGTKLTVL
notes: Used biotin-conjugated in the clinical PK ELISA and the LC-MS/MS capture; also called anti-gH idiotypic antibody; anti-gH anti-ID mAb
[1]
  Kd: 0.1 nM
[2]
  fold of OD in the presence of anti-gH over OD in the absence of anti-gH: > 2 fold

B2: murine mAb 4.25B10.15 (antibody, IgG1, V domains shown)
VH: QVQLQQSGAELVRPGTSVKVSCKASGYAFTNYLIEWVKQRPGQGLEWIGVINPGSGGTNYNEKFEAKATLTADKSSSTAYMQLSSLTSDDSAVYFCARHGSSYWYFDVWGAGTTVTVSS
VL: DIVMTQSPATLSVTPGDRVSLSCRASQSISDYLHWYQQKSHESPRLLIKYASQSISGIPSRFSGSGSGSDFTLSINSVEPEDVGVYYCQNGHSFPYTFGGGTKLEIK
notes: also called anti-CI idiotypic antibody; anti-CI anti-ID mAb
[3]
  Kd: 4.7 nM
[4]
  Signal/bkgd ratio: 4.4 ratio
[5]
  Signal/bkgd ratio: 10 ratio
[6]
  Signal/bkgd ratio: 13 ratio
[7]
  Signal/bkgd ratio: 13.8 ratio
[8]
  Signal/bkgd ratio: 4.3 ratio
[9]
  Signal/bkgd ratio: 10.4 ratio
[10]
  Signal/bkgd ratio: 12.3 ratio
[11]
  Signal/bkgd ratio: 2.7 ratio
[12]
  Signal/bkgd ratio: 14.7 ratio
[13]
  Signal/bkgd ratio: 5.3 ratio
[14]
  Signal/bkgd ratio: 13.3 ratio
[15]
  Signal/bkgd ratio: 16.5 ratio
[16]
  Signal/bkgd ratio: 1.9 ratio
[17]
  Signal/bkgd ratio: 2.7 ratio
[18]
  Signal/bkgd ratio: 19.1 ratio
[19]
  Signal/bkgd ratio: 1.4 ratio
[20]
  Signal/bkgd ratio: 1.8 ratio
[21]
  Signal/bkgd ratio: 3.2 ratio
[22]
  Signal/bkgd ratio: 1.4 ratio
[23]
  Signal/bkgd ratio: 2.1 ratio
[24]
  Signal/bkgd ratio: 1.5 ratio
[25]
  S/B ratio: 13.6 ratio
[26]
  S/B ratio: 19.6 ratio
[27]
  S/B ratio: 22.3 ratio
[28]
  S/B ratio: 8.4 ratio
[29]
  S/B ratio: 4.9 ratio
[30]
  S/B ratio: 1.5 ratio
[31]
  S/B ratio: 2 ratio
[32]
  S/B ratio: 3 ratio
